What was measured:
[1] = test system: parasympathetic nerve cells from chick embryo ciliary ganglia; test: Neuronal survival assay (MTT), ciliary ganglia; format: cell-based
Method: Cultures of primary check embryo ciliary ganglia and sympathetic chain ganglia were prepared as previously described (Collins 1978 Develop. Biol. 65:50; Manthorpe et al. 1986 Develop. Brain Res. 25:191). Briefly, ciliary or sympathetic ganglia were removed from fertile, pathogen free chicken eggs that had been incubated for 8 and 10 days, respectively, at 38° C. in a humidified atmosphere. […]
Ten μl of a serial dilution of the sample to be assayed for neurotrophic activity was added to each well and the dishes were incubated for 20 hours at 37° C. in a humidified atmosphere containing 7.5% CO2. […] The absorbance of 570 nm was determined relative to a 690 nm reference for each well using an automatic microtiter plate reader (Dynatech, Chantilly, Va.). The absorbance of wells which had not received any neurotrophic agent (negative controls) was substracted from the absorbance of sample-containing wells. The resulting absorbance is proportional to the number of living cells in each well, defined as those nerve cells capable of reducing the dye. […] Specific activity was determined by dividing the number of trophic units by the amount of protein present in the sample.

[2] = test system: sympathetic neurons from chick embryo sympathetic chain ganglia; test: Neuronal survival assay (MTT), sympathetic chain ganglia; format: cell-based
Method: Cultures of primary check embryo ciliary ganglia and sympathetic chain ganglia were prepared as previously described (Collins 1978 Develop. Biol. 65:50; Manthorpe et al. 1986 Develop. Brain Res. 25:191). Briefly, ciliary or sympathetic ganglia were removed from fertile, pathogen free chicken eggs that had been incubated for 8 and 10 days, respectively, at 38° C. in a humidified atmosphere. The ganglia were chemically dissociated by exposure first to Hands' Balanced Salt Solution without divalent cations, containing 10 mM HEPES buffer pH 7.2 for 10 min at 37° C., and then by exposure to a solution of 0.125% bactotrypsin 1:250 (Difco, Detroit, Mich.) in Hanks' Balanced Salt Solution modified as above for 12 min at 37° C. Trypsinization was stopped by addition of fetal calf serum to a final concentration of 10%.
After this treatment, ganglia were transferred to a solution consisting of Dulbecco's high glucose Modified Eagle Medium without bicarbonate containing 10% fetal calf serum and 10 mM HEPES, pH 7.2 and were mechanially dissociated by trituration approximately 10 times through a glass Pasteur pipet whose opening had been fire polished and constricted to a diameter such that it took 2 seconds to fill the pipet.
The dissociated ganglia were then plated in culture medium (Dulbecco's Modified Eagle Medium supplemented with 10% fetal calf serum, 4 mM glutamine, 60 mg/L penicillin-G, 25 mM HEPES, pH 7.2) in 100 mm diameter tissue culture dishes (40 dissociated ganglia per dish) for three hours. […] After three hours, the nonadherent nerve cells were collection by centrifugation, resuspended in culture medium, and plated in 50 μl per well onto half area 96 well microtiter tissue culture plates at a density of 1500 nerve cells per well. The microtiter wells had been previously exposed to a 1 mg/ml solution of poly-L-ornithine in 10 mM sodium borate, pH 8.4 overnight at 4° C., washed in distilled water and air dried.
Ten μl of a serial dilution of the sample to be assayed for neurotrophic activity was added to each well and the dishes were incubated for 20 hours at 37° C. in a humidified atmosphere containing 7.5% CO2. After 18 hours for ciliary and 40 hours for sympathetic ganglia, 15 μl per well of a 1.5 mg/ml solution of the tetrasolium dye MTT in Dulbecco's high glucose Modified Eagle Medium without bicarbonate containing 10 mM HEPES, pH 7.2, was added and the cultures placed in the 37° C. incubator for 4 hours. Then, 75 μl of a solution of 6.7 ml of 12 M HCl per liter of isopropanol was added and the contents of each well triturated 30 times to break open the cells and suspend the dye. The absorbance of 570 nm was determined relative to a 690 nm reference for each well using an automatic microtiter plate reader (Dynatech, Chantilly, Va.). The absorbance of wells which had not received any neurotrophic agent (negative controls) was substracted from the absorbance of sample-containing wells. The resulting absorbance is proportional to the number of living cells in each well, defined as those nerve cells capable of reducing the dye. The number of trophic units of neurotrophic activity was defined as the reciprocal of the dilution that gave 50% of maximal survival of nerve cells. Specific activity was determined by dividing the number of trophic units by the amount of protein present in the sample.

[3] = test system: dopaminergic neurons in rat embryo (E16) mesencephalic cell cultures; test: Bioassay for dopaminergic neurotrophic activity: 3H-dopamine uptake in dissociated mesencephalic cell cultures; format: cell-based; settings: cultures grown with GDNF for 15 days
[4] = test system: nigral dopaminergic nerve cells; test: Experimental Parkinsonism in monkeys treated with MPTP; format: in vivo, monkeys (Cebus apella); settings: intraventricular minipump, 14 days, MPTP 0.6 mg/kg
Method: A stainless-steel cannula may be implanted into the right lateral ventricle and connected to a subcutaneously-implanted osmotic minipump (Alzet 2002). The minipump contains GDNF at various concentrations or its diluent as a negative control. The pump delivers 0.5 μl/h for 14 days. Two days after the cannula-pump implant, monkeys (Cebus apella) receive an injection of 0.6 mg/kg of MPTP into the right carotid artery. Six weeks after the initial implant, animals are perfused with saline and the brain rapidly removed. The brain is dissected on ice and punches of tissue are removed from the caudate nucleus and putamen. The substantia nigra is placed in fixative. The caudate-putamen tissue is analyzed by HPLC-EC for dopamine, the substantia nigra is processed for tyrosine hydroxylase (TH) immunoreactivity.
Degeneration of nigral dopaminergic nerve cells and their axonal projections to the caudate/putamen cause experimental Parkinsonism in this monkey model. There are several experimental indications that GDNF may prevent or reduce the severity of this neuronal degeneration. […] This indicates sparing by GDNF of nigral dopaminergic nerve cells from the toxic effects of MPTP. […] This indicates sparing by GDNF of the axonal projections of the nigral dopaminergic neurons from the toxic effects of MPTP. […]

[5] = test system: serotonergic neurons in rat embryo mesencephalic cultures; test: 3H-serotonin uptake in mesencephalic cultures; format: cell-based; settings: uptake after 6 days in vitro
Method: FIGS. 24A-B depicts the specificity of GDNF to dopaminergic neurons. Cultures were prepared as described in Example 1B. GDNF was added on the day of plating, and uptake was measured after 6 days in vitro. A depicts dopamine uptake and B depicts serotonin uptake.
In the presence of 10 μM citalpram (obtained from Dr. C. Mytilineou, Mount Sinai School of Medicine), a known potent inhibitor of serotonin uptake in serotonin neurons, the ^3H-serotonin uptake was reduced to 15%.

B1: glial cell line-derived neurotrophic factor (protein)
chain: SNMPEDYPDQFDDVMDFIQATIKRLKRSPDKQMAVLPRRERNRQAAAANPENSRGKGRRGQRGKNRGCVLTAIHLNVTDLGLGYETKEELIFRYCSGSCDAAETTYDKILKNLSRNRRLVTDKVGQACCRPIAF
notes: dopaminergic neurotrophic protein purified from serum-free conditioned medium of rat B49 glioblastoma cells; disulfide-bonded dimer
survival of parasympathetic nerve cells [1]: promotes the survival in culture of parasympathetic nerve cells
bioactivity in sympathetic neuron survival bioassay [2]: promotes the survival in culture of symphathetic nerve cells
ED50 for sympathetic neuron survival ([2]; chick embryo (E10) sympathetic ganglia): about 5 ng/ml
3H-DA uptake capacity over control without GDNF [3]: ~150%
loss of dopamine content in the caudate/putamen [4]: may also prevent the loss of dopamine content in the caudate/putamen
effect on serotonin uptake [5]: fails to increase the uptake of serontonin
